Tests used:
platelets = settings: 1 U/ml thrombin; cited from earlier work
^35S-HSPG (>70 K) = experiment: Heparanase activity, Conventional Assay (degradation of 35S-HSPG, 30,000 MW cut-off filter); assay type: biochemical, mice
Description: The pH optimum of the purified heparanase was determined by conducting the assay described in Example 2 (the Conventional Assay) in the pH range of 3.5 to 8.0, using a citrate buffer (pH 3.5-6.0), citrate-phosphate buffer (pH 6.5-7.0), and phosphate buffer (pH 7.5-8). Heparanase was active between pH 5.0 and 8.0, with the optimum pH at 5.8.
^35S-HSPG (>70 K) was prepared from mice bearing a basement membrane tumor that overproduces HSPG (EHS tumor), using modifications of the method of Ledbetter et al. (Biochemistry 26: 988-995 (1987)). Briefly, the radiolabeled HSPG was prepared by injecting C57BL mice bearing the EHS tumor with sodium [^35S] sulfate (0.5 mCi/mouse) 18 h before harvesting the tumor. […]
^35S-HSPG was isolated from the Buffer B supernatant by sequential chromatography on anion exchange and gel filtration columns. […] Fractions were sampled for radioactivity, and those containing the ^35SO4 label that eluted from the DEAE-Sephacel between 0.4 M and 0.8 M NaCl were pooled. […] Fractions were sampled for radioactivity, and those containing the ^35SO4 label that elutes with a molecular weight 70 kDa were pooled. […]
Heparanase activity from platelets or column fractions was detected by its ability to digest the 70 kDa ^35S-HSPG to produce lower molecular weight products. not retained by a 30,000 MW cut-off membrane. […]

For thrombin, the “heparanase activity released from platelets” value (platelets) is given as 100%.

B1: purified heparanase: Human platelet heparanase: non-covalently associated 56 kDa (residues 145-530) and 8 kDa (residues 23-96) polypeptides of SEQ ID NO:2 (protein)
chain: QDVVDLDFFTQEPLHLVSPSFLSVTIDANLATDPRFLILLGSPKLRTLARGLSPAYLRFGGTKTDFLIFDPKKESTFEERSYWQSQVNQDICKYGSIPPDVEEKLRLEWPYQEQLLLREHYQKKFKNSTYSRSSVDVLYTFANCSGLDLIFGLNALLRTADLQWNSSNAQLLLDYCSSKGYNISWELGNEPNSFLKKADIFINGSQLGEDFIQLHKLLRKSTFKNAKLYGPDVGQPRRKTAKMLKSFLKAGGEVIDSVTWHHYYLNGRTATKEDFLNPDVLDIFISSVQKVFQVVESTRPGKKVWLGETSSAYGGGAPLLSDTFAAGFMWLDKLGLSARMGIEVVMRQVFFGAGNYHLVDENFDPLPDYWLSLLFKKLVGTKVLMASVQGSKRRKLRVYLHCTNTDNPRYKEGDLTLYAINLHNVTKYLRLPYPFSNKQVDKYLLRPLGPHGLLSKSVQLNGLTLKMVDDQTLPPLMEKPLRPGSSLGLPAFSYSFFVIRNAKVAACI
modifications: two chains: residues 145-530 and 23-96
With B1 the “optimum pH of heparanase activity” value (^35S-HSPG (>70 K); pH range 3.5 to 8.0, citrate, citrate-phosphate and phosphate buffers) was 5.8.

B2: Pro-heparanase: 508 residue protein, amino acid residues 23 to 530 of SEQ ID NO: 2, precursor of heparanase (protein)
chain: B1 chain
For B2, the catalytic activity (^35S-HSPG (>70 K); before cleavage of the Glu96-Ser97 and Gln144-Lys145 bonds) was “not catalytically active”.

— patent US6387643B1, “Human platelet heparanase polypeptides, polynucleotide molecules that encode them, and methods for the identification of compounds that alter heparanase activity” (Pharmacia and Upjohn Company, priority 1998, dated 2002)
